Reference: patent US10494415B2, “Insulin-like growth factor 2 (IGF2) binding agents” (Cancer Research Technology Limited, priority 2015, dated 2019)
Residue numbers refer to the chain shown, from its start. In names and notes the source's numbering stands.

B1: K1631W: domain 11 HI loop mutant K1631W, probably AB5 background (protein)
chain: MKSNEHDDCQVTNPSTGHLFDLSSLSGRAGFTAAYAKGWGVYMSICGENENCPPGVGACFGQTRISVGKANKRLRYVDQVLQLVYKDGSPCPSKSGLSYKSVISFVCRPEAGPTNRPMLISLDWQTCTLFFSWHTPLACEQATECSV
B2: G1603A: domain 11 AB5 background + FG loop G1603A (protein)
chain: B1 chain with G96A, W124K
B3: Q1632K: domain 11 HI loop mutant Q1632K, probably AB5 background (protein)
chain: B1 chain with W124K, Q125K
B4: Q1632E: domain 11 HI loop mutant Q1632E, probably AB5 background (protein)
chain: B1 chain with W124K, Q125E
B5: S1602H: domain 11 AB5 background + FG loop S1602H (protein)
chain: B1 chain with S95H, W124K
B6: P1599V: domain 11 FG loop mutant P1599V, AB5 background unless otherwise stated (protein)
chain: B1 chain with P92V, W124K
B7: S1600Y: domain 11 AB5 background + FG loop S1600Y (protein)
chain: B1 chain with S93Y, W124K
B8: S1600N: domain 11 AB5 background + FG loop S1600N (protein)
chain: B1 chain with S93N, W124K
B9: K1601R: domain 11 AB5 background + FG loop K1601R (protein)
chain: B1 chain with K94R, W124K
B10: L1604A: domain 11 AB5 background + FG loop L1604A (protein)
chain: B1 chain with L97A, W124K
B11: S1602Q: domain 11 AB5 background + FG loop S1602Q (protein)
chain: B1 chain with S95Q, W124K
B12: K1631R: domain 11 HI loop mutant K1631R, probably AB5 background (protein)
chain: B1 chain with W124R
B13: AB5 Q1569R P1597H S1602H: domain 11 AB5 + Q1569R, P1597H, S1602H (AB5-RHH) (protein)
chain: B1 chain with Q62R, P90H, S95H, W124K
B14: G1603K: domain 11 AB5 background + FG loop G1603K (protein)
chain: B1 chain with G96K, W124K
B15: S1602A: domain 11 AB5 background + FG loop S1602A (protein)
chain: B1 chain with S95A, W124K
B16: Q1632L: domain 11 HI loop mutant Q1632L, probably AB5 background (protein)
chain: B1 chain with W124K, Q125L
B17: S1600A: domain 11 AB5 background + FG loop S1600A (protein)
chain: B1 chain with S93A, W124K
B18: P1599G: domain 11 FG loop mutant P1599G, AB5 background unless otherwise stated (protein)
chain: B1 chain with P92G, W124K
B19: S1602N: domain 11 AB5 background + FG loop S1602N (protein)
chain: B1 chain with S95N, W124K
B20: K1601A: domain 11 AB5 background + FG loop K1601A (protein)
chain: B1 chain with K94A, W124K
B21: K1631E: domain 11 HI loop mutant K1631E, probably AB5 background (protein)
chain: B1 chain with W124E
B22: Q1632A: domain 11 HI loop mutant Q1632A, probably AB5 background (protein)
chain: B1 chain with W124K, Q125A
B23: S1600L: domain 11 AB5 background + FG loop S1600L (protein)
chain: B1 chain with S93L, W124K
B24: P1599A: domain 11 FG loop mutant P1599A, AB5 background unless otherwise stated (protein)
chain: B1 chain with P92A, W124K
B25: S1600V: domain 11 AB5 background + FG loop S1600V (protein)
chain: B1 chain with S93V, W124K
B26: AB3 Q1569R P1597H S1602H G1603K: domain 11 AB3 + Q1569R, P1597H, S1602H, G1603K (protein)
chain: B1 chain with A36S, G38S, W39G, G40V, Q62R, P90H, S95H, G96K, W124K

Biological target: IGF2 (Homo sapiens, UniProt P01344)
Test: SPR (Biacore T200) of recombinant IGF2R domain 11 mutants on immobilised biotinylated IGF2
Assay type: binding
Design: purchased GroPep
Conditions: for off rate / koff (figure legend) / on rate / kon (figure legend): FIG. 2, 3
Excerpt: Surface plasmon resonance (SPR) binding analysis of recombinant M6P/IGF2R domain 11 mutants interaction with IGF2. Kon indicates association (on) rate; koff, dissociation (off) rate; RU, response units. Binding to IGF2 assessed with BIAcore T200 using purified biotinylated IGF2 and IGF1 on a streptavidin biosensor chip. Recombinant proteins were expressed either in E. coli and/or P. pastoris. All the mutants in the FG and CD loops are on the domain 11^AB5 background for the AB loop unless otherwise stated. All experiments were carried out at 25° C. in HBS-EP buffer (pH 7.4), were repeated 2-5 times on two independent BIAcore chips. nd=not determined. Data for KD expressed as mean of each experiment, and means of kon and koff are shown.
Measurements were carried out at 25° C. in HBS-EP buffer (pH 7.4) (nd=not determined, np=no protein). Data for KD expressed as mean of each experiment, and means of kon and koff are shown.
Measurements were carried out at 25° C. in MES-EP buffer, 20 mM MES pH 6.5, 150 mM NaCl, 3 mM EDTA, and 0.005% (v/v) surfactant P20). Data for KD expressed as mean of each experiment, and means of kon and koff are shown.
Final kinetic analysis of mutants by SPR was conducted using a Biacore T200 biosensor at 25° C. in either HBS-EP (10 mM HEPES pH 7.4, 150 mM NaCl, 3 mM EDTA, and 0.005% (v/v) surfactant P20) or MES-EP (20 mM MES pH 6.5, 150 mM NaCl, 3 mM EDTA, and 0.005% (v/v) surfactant P20) at a flow-rate of 40 μL min^−1. […] For the analysis of the Fc-domain 11^AB5 interaction, approximately 50 RU of a biotinylated IGF2:biotinylated ubiquitin mixture (1:8 proportion) was immobilized on the CM5-streptavidin chip. This interaction was also analysed by immobilizing the Fc-domain 11^AB5 and Fc-domain 11^AB5-RHH (or Fc-domain 11^I1572A as control) by Human Antibody Capture (monoclonal mouse anti-human IgG antibody immobilised on a CM5 chip by amine coupling, GE Healthcare) with and without human IgG1 Fc fragment (Bethyl Laboratories, UK) in the control flow cell. Increasing concentrations of IGF2^1-67, proIGF2^1-104, proIGF2^1-156 and IGF1 ranging from 0.125 to 32 nM were injected. T200 BiaEvaluation software (GE Healthcare) was used to fit the resulting curves according to a 1:1 binding model. Steady state affinities were determined using the kinetic data, taking the response average at 5 seconds before injection end and for 5 seconds average. Thermodynamic data was performed across the temperature range of 10° C. to 30° C., van't Hoff and Erying plots generated and ΔH, −TΔS and ΔG values determined as previously described.

Sequence of IGF2 (P01344 25-91): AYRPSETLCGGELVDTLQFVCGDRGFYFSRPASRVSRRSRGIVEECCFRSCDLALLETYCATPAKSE

| Molecule | Kinetics koff (Table 1, 25° C., HBS-EP pH 7.4) [s⁻¹] | Kinetics kon (Table 1, 25° C., HBS-EP pH 7.4) [M⁻¹ s⁻¹] | also measured |
| --- | --- | --- | --- |
| B1 | 0.0034 | 1.18e+06 | Kd (pH 7.4): 3.23 nM |
| B2 | 0.0183 | 2.14e+06 |  |
| B3 | 0.0212 | 1.96e+06 |  |
| B4 | 0.0202 | 520000 |  |
| B5 | 0.0112 | 3.61e+06 |  |
| B6 | >0.1 |  |  |
| B7 | >0.2 |  |  |
| B8 | 0.0910 | 3.95e+06 |  |
| B9 | 0.0251 | 5.28e+06 |  |
| B10 | 0.0397 | 790000 |  |
| B11 | 0.0191 | 5.88e+06 |  |
| B12 | 0.0867 | 7.18e+06 |  |
| B13 |  |  | off rate / koff (figure legend): 0.0038 s⁻¹; on rate / kon (figure legend): 5.9e+06 M⁻¹ s⁻¹; Kinetics koff (Table 3, 25° C., HBS-EP pH 7.4): 0.0038 s⁻¹; Kinetics kon (Table 3, 25° C., HBS-EP pH 7.4): 5.9e+06 M⁻¹ s⁻¹; Kinetics koff (Table 4, MES-EP pH 6.5): 0.0030 s⁻¹; Kinetics kon (Table 4, MES-EP pH 6.5): 4.41e+06 M⁻¹ s⁻¹ |
| B14 | 0.0121 | 4.66e+06 |  |
| B15 | 0.0250 | 1.57e+06 |  |
| B16 | 0.0175 | 3.18e+06 |  |
| B17 | 0.2126 | 2.39e+06 |  |
| B18 | >0.2 |  |  |
| B19 | 0.0112 | 2.38e+06 |  |
| B20 | 0.0220 | 3.26e+06 |  |
| B21 | >0.1 |  |  |
| B22 | 0.0167 | 4.5e+06 |  |
| B23 | >0.2 |  |  |
| B24 | >0.1 |  |  |
| B25 | >0.2 |  |  |
| B26 |  |  | off rate / koff (figure legend): 0.0108 s⁻¹; on rate / kon (figure legend): 1.75e+07 M⁻¹ s⁻¹; Kinetics koff (Table 3, 25° C., HBS-EP pH 7.4): 0.0108 s⁻¹; Kinetics kon (Table 3, 25° C., HBS-EP pH 7.4): 1.75e+07 M⁻¹ s⁻¹; Kinetics koff (Table 4, MES-EP pH 6.5): 0.0087 s⁻¹; Kinetics kon (Table 4, MES-EP pH 6.5): 2.43e+07 M⁻¹ s⁻¹ |
